Results as given in patent US20250051476A1 (ABDERA THERAPEUTICS, published 2025).
Residue numbers refer to the chain shown, from its start.

B1: 24_zu4 (Fc fusion)
chain: QVQLVESGGGLVQPGGSLRLSCAASGFTFSSYRINWYRQAPGQGRELVASITDTGSTNYADSVKGRFTISRDNSKNTLYLQMNSLRAEDTAVYYCAAPTIAAYWGQGTLVTVSSEPKSSDKTHTCPPCPAPEAEGAPSVFLFPPKPKDTLMISRTPEVTCVVVDVSHEDPEVKFNWYVDGVEVHNAKTKPREEQYNSTYRVVSVLTVLHQDWLNGKEYKCKVSNKALPSSIEKTISKAKGQPREPQVYTLPPSREEMTKNQVSLTCLVKGFYPSDIAVEWESNGQPENNYKTTPPVLDSDGSFFLYSKLTVDKSRWQQGNVFSCSVMHEALHNQYTQKSLSLSPG
notes: Humanized VHH-Fc
B2: 24_zu3 (Fc fusion)
chain: B1 chain with R45L
notes: Humanized VHH-Fc
B3: 24_zu1 (Fc fusion)
chain: B1 chain with Y37F, R45L, L47A
notes: Humanized VHH-Fc
B4: 24_zu5 (Fc fusion)
chain: B1 chain with A40P, Q43K, A49G
notes: Humanized VHH-Fc
B5: 24_zu2 (Fc fusion)
chain: B1 chain with Y37F, R45L
notes: Humanized VHH-Fc
B6: 107_zu4 (Fc fusion)
chain: QVQLVESGGGLVQPGGSLRLSCAASDRTFSSYAVGWFRQAPGQEREFVAAISWNGGRTLYTDSVTGRFTISRDNSKNTLYLQMNSLRAEDTAVYYCAARPAAPTRRLEYDYWGQGTLVTVSSEPKSSDKTHTCPPCPAPEAEGAPSVFLFPPKPKDTLMISRTPEVTCVVVDVSHEDPEVKFNWYVDGVEVHNAKTKPREEQYNSTYRVVSVLTVLHQDWLNGKEYKCKVSNKALPSSIEKTISKAKGQPREPQVYTLPPSREEMTKNQVSLTCLVKGFYPSDIAVEWESNGQPENNYKTTPPVLDSDGSFFLYSKLTVDKSRWQQGNVFSCSVMHEALHNQYTQKSLSLSPG
notes: Humanized VHH-Fc
B7: 107_zu3 (Fc fusion)
chain: B6 chain with E44G
notes: Humanized VHH-Fc
B8: 107_zu5 (Fc fusion)
chain: B6 chain with Q43K
notes: Humanized VHH-Fc
B9: 107_zu1 (Fc fusion)
chain: B6 chain with E44G, R45L, F47A
notes: Humanized VHH-Fc
B10: 186_zu3 (Fc fusion)
chain: QVQLVESGGGLVQPGGSLRLSCAASGFDFSTYTVNWYRQAPGQGLEKVARISSTGTTTNYANSAKGRFTISRDNSKNTLYLQMNSLRAEDTAVYYCAAERFDSNYWGQGTLVTVSSEPKSSDKTHTCPPCPAPEAEGAPSVFLFPPKPKDTLMISRTPEVTCVVVDVSHEDPEVKFNWYVDGVEVHNAKTKPREEQYNSTYRVVSVLTVLHQDWLNGKEYKCKVSNKALPSSIEKTISKAKGQPREPQVYTLPPSREEMTKNQVSLTCLVKGFYPSDIAVEWESNGQPENNYKTTPPVLDSDGSFFLYSKLTVDKSRWQQGNVFSCSVMHEALHNQYTQKSLSLSPG
notes: Humanized VHH-Fc
B11: 186_zu4 (Fc fusion)
chain: B10 chain with G44E, L45R
notes: Humanized VHH-Fc
B12: 186_zu5 (Fc fusion)
chain: B10 chain with Q43K, G44E, L45R
notes: Humanized VHH-Fc
B13: 100_zu4 (Fc fusion)
chain: QVQLVESGGGLVQPGGSLRLSCAASGIVFNSDVMGWYRQAPGQPRELVATITGGGSTNYATSVKGRFTISRDNSKNTLYLQMNSLRAEDTAVYYCAARRGDSMLAFWGQGTLVTVSSEPKSSDKTHTCPPCPAPEAEGAPSVFLFPPKPKDTLMISRTPEVTCVVVDVSHEDPEVKFNWYVDGVEVHNAKTKPREEQYNSTYRVVSVLTVLHQDWLNGKEYKCKVSNKALPSSIEKTISKAKGQPREPQVYTLPPSREEMTKNQVSLTCLVKGFYPSDIAVEWESNGQPENNYKTTPPVLDSDGSFFLYSKLTVDKSRWQQGNVFSCSVMHEALHNQYTQKSLSLSPG
notes: Humanized VHH-Fc
B14: 100_zu5 (Fc fusion)
chain: B13 chain with A40V, Q43K
notes: Humanized VHH-Fc
B15: 100_zu2 (Fc fusion)
chain: B13 chain with Y37F, P44G, R45L
notes: Humanized VHH-Fc
B16: 100_zu3 (Fc fusion)
chain: B13 chain with P44G, R45L
notes: Humanized VHH-Fc
B17: 126_zu4 (Fc fusion)
chain: QVQLVESGGGLVQPGGSLRLSCAASGITFSMYSMSWYRQAPGQQRELVAATTTFGSTNYADSVKGRFTISRDNSKNTLYLQMNSLRAEDTAVYYCAARFTSEEYWGQGTLVTVSSEPKSSDKTHTCPPCPAPEAEGAPSVFLFPPKPKDTLMISRTPEVTCVVVDVSHEDPEVKFNWYVDGVEVHNAKTKPREEQYNSTYRVVSVLTVLHQDWLNGKEYKCKVSNKALPSSIEKTISKAKGQPREPQVYTLPPSREEMTKNQVSLTCLVKGFYPSDIAVEWESNGQPENNYKTTPPVLDSDGSFFLYSKLTVDKSRWQQGNVFSCSVMHEALHNQYTQKSLSLSPG
notes: Humanized VHH-Fc
B18: 126_zu3 (Fc fusion)
chain: B17 chain with Q44G, R45L
notes: Humanized VHH-Fc
B19: 126_zu5 (Fc fusion)
chain: B17 chain with A40P, Q43K
notes: Humanized VHH-Fc

Molecular target: T1, human DLL3 (human, UniProt Q9NYJ7 27-492, limits assumed)
T1 construct: also called hDLL3; Delta-like protein 3
T1 sequence (looked up): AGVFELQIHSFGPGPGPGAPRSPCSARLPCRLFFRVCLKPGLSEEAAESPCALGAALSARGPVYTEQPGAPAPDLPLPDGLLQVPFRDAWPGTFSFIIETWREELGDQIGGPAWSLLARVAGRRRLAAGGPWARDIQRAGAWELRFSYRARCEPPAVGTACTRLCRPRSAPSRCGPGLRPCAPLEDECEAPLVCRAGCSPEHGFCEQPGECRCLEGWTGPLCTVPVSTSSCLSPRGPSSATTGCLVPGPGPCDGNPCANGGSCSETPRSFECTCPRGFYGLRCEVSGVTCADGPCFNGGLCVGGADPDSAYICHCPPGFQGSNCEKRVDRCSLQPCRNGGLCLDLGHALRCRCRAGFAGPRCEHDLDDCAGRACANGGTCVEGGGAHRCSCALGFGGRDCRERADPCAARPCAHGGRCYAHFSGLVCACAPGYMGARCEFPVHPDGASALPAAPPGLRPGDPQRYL
Experiment: ELISA

Row | Binder | binding result
1 | B1 | no binding
2 | B2 | no binding
3 | B3 | binds
4 | B4 | no binding
5 | B5 | no binding
6 | B6 | binds
7 | B7 | binds
8 | B8 | binds
9 | B9 | binds
10 | B10 | binds
11 | B11 | binds
12 | B12 | binds
13 | B13 | no binding
14 | B14 | no binding
15 | B15 | no binding
16 | B16 | no binding

Molecular target: T2, mouse DLL3 (mouse, UniProt O88516 25-477, limits assumed)
T2 construct: also called mDLL3; murine DLL3
T2 sequence (looked up): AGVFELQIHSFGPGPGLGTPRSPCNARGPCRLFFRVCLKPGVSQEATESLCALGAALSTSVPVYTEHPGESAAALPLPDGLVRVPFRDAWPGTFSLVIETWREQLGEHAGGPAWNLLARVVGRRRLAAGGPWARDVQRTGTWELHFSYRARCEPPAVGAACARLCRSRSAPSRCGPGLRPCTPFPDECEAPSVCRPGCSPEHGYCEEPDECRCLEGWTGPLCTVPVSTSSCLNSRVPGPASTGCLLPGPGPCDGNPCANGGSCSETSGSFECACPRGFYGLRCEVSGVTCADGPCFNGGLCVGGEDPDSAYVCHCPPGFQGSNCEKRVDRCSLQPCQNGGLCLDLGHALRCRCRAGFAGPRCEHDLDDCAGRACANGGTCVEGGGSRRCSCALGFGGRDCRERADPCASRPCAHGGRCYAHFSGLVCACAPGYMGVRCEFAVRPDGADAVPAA
Experiment: ELISA

Row | Binder | binding result
17 | B1 | no binding
18 | B2 | no binding
19 | B4 | no binding
20 | B5 | no binding
21 | B17 | no binding
22 | B18 | no binding
23 | B19 | no binding
24 | B10 | no binding
25 | B11 | no binding
26 | B12 | no binding
27 | B13 | no binding
28 | B14 | no binding
29 | B15 | no binding
30 | B16 | no binding

Molecular target: T3, DLL3 on cells (SHP-77, NCI-H82, HEK-DLL3, membrane proteome array cells) (human, UniProt Q9NYJ7 27-618)
T3 construct: whole, on cells; also called hDLL3
T3 sequence (looked up): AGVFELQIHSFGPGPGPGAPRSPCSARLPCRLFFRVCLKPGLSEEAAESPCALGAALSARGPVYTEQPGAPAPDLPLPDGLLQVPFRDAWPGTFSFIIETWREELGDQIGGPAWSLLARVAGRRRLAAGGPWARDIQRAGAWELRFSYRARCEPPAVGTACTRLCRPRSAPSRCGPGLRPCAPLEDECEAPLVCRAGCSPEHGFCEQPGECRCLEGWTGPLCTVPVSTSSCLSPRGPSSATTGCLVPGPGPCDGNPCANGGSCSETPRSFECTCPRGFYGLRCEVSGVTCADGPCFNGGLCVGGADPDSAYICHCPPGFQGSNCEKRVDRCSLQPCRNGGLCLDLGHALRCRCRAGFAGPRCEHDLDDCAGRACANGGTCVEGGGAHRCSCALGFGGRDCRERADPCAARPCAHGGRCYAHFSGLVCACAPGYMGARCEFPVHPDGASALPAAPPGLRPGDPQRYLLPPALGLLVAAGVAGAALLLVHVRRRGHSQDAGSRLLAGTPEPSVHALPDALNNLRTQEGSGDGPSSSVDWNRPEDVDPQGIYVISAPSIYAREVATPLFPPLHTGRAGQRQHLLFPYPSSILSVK
Experiment: flow cytometry on SHP-77 cells, Geomeans RL1-H

Row | Binder | EC50 (read off the curve) | binding result
31 | B17 | ~0.1 nM | 
32 | B18 | ~0.1 nM | 
33 | B19 | ~0.1 nM | 
34 | B6 |  | binds
35 | B7 |  | binds
36 | B8 |  | binds
